This test has as its target GroEL (E. coli Cpn60) (E. coli) (UniProt P0A6F5). The test can be described thus: cell-based or functional assay.

Chain of GroEL (E. coli Cpn60) (E. coli) (P0A6F5 2-548 limits assumed): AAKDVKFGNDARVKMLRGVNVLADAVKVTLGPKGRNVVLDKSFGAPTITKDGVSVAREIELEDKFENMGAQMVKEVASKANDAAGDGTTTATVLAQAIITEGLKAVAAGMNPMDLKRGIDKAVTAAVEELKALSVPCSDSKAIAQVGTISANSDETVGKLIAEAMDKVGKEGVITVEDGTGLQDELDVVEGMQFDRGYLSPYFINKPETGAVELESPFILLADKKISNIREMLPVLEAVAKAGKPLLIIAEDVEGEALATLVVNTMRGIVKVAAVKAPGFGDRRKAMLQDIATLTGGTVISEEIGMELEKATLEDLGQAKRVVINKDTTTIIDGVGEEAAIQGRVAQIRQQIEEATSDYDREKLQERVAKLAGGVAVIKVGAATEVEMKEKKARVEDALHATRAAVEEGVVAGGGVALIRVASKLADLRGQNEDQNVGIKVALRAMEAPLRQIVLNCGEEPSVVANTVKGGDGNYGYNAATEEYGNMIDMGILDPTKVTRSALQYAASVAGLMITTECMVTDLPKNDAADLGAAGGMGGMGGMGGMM

B1: E. coli Cpn10 (GroES) (protein)
chain: MNIRPLHDRVIVKRKEVETKSAGGIVLTGSAAAKSTRGEVLAVGNGRILENGEVKPLDVKVGDIVIFNDGYGVKSEKIDNEEVLIMSESDILAIVEA
As for B1, the Refolding activity (% of Ala-Cpn10) (% of Ala-Cpn10) stood at 109.

These data come from US20120014998A1.
